B1: Trim5α from Rhesus macaque, Bbox coiled-coil regions, residues 88–296 with the mutation [Rhesus macaque] / LC3C [not stated] (parent)
chain 1: PEEGQKVDHCARHGEKLLLFCQEDSKVICWLCKDSQEHRGHHTFLMEEVAQEYHVKLQTALEMLRQKQQEAEKLEADIREEKASWKIQIDYDKTNVSADFEQLREILDWEESNELQNLEKEEEDILKSLTKSETEMVQQTQYMRELISELEHRLQGSMMDLLQGVDGIIKRIENMTLKKPKTFHKNQRRVFRAPDLKGMLDMFRELTDA
chain 2: MPPPQKIPSVRPFKQRKSLAIRQEEVAGIRAKFPNKIPVVVERYPRETFLPPLDKTKFLVPQELTMTQFLSIIRSRMVLRATEAFYLLVNNKSLVSMSATMAEIYRDYKDEDGFVYMTYASQETFG
B2: Trim5α from Rhesus macaque, Bbox coiled-coil regions, residues 88–296 with the mutation [Rhesus macaque] / GABARAP [not stated] (parent)
chain 1: B1 chain 1
chain 2: MKFVYKEEHPFEKRRSEGEKIRKKYPDRVPVIVEKAPKARIGDLDKKKYLVPSDLTVGQFYFLIRKRIHLRAEDALFFFVNNVIPPTSATMGQLYQEHHEEDFFLYIAYSDESVYGL
B3: Trim5α from Rhesus macaque, Bbox coiled-coil regions, residues 88–296 with the mutation [Rhesus macaque] / GABARAPL1 [not stated] (parent)
chain 1: B1 chain 1
chain 2: not shown

Variants of: B1
Test: SV-AUC c(s) analysis
Settings: with LC3C; 20 μm equimolar concentration; read off a plot

| Variant | screen value |
| --- | --- |
| chain 1 W109A | 2.7 S |

Variants of: B2
Test: SV-AUC c(s) analysis
Settings: with GABARAP; 20 μm equimolar concentration; read off a plot

| Variant | screen value |
| --- | --- |
| chain 1 W109A | 2.8 S |

Variants of: B3
Test: SV-AUC c(s) analysis
Settings: with GABARAPL1; equal concentration of 20 μm; read off a plot

| Variant | screen value |
| --- | --- |
| chain 1 E119K | 2.9 S |
| chain 1 E119A | 3 S |
| chain 1 E105K | 2.8 S |
| chain 1 E105A | 2.9 S |
| chain 1 Q116A | 3 S |
| chain 1 Q102A | 3.1 S |
| chain 1 S112A | 3 S |
| chain 1 E111K | 2.9 S |
| chain 1 E110A | 3 S |

Same assay, conditions: with autophagy-related protein LC3 B (LC3B), equal concentration of 20 μm, read off a plot

| Variant | screen value |
| --- | --- |
| chain 1 E119K | 2.8 S |
| chain 1 E119A | 2.8 S |
| chain 1 E105K | 2.7 S |
| chain 1 E105A | 2.8 S |
| chain 1 Q116A | 3 S |
| chain 1 Q102A | 2.9 S |
| chain 1 S112A | 3 S |
| chain 1 E111K | 2.8 S |
| chain 1 E110A | 2.8 S |

Same assay, conditions: with GABARAPL1; 20 μm equimolar concentration; read off a plot

| Variant | screen value |
| --- | --- |
| chain 1 W109A | 2.8 S |

Same assay, conditions: with autophagy-related protein LC3 B (LC3B), 20 μm equimolar concentration, read off a plot

| Variant | screen value |
| --- | --- |
| chain 1 W109A | 2.7 S |

Reference: paper PMC6254359
